The results in this text go back to the PETadex activity labels (doi:10.3390/molecules28083528).

Sequences and labels used below:
B1: unnamed (protein)
chain: MAVGSMLLSMAAQAQVVVFEETFSTGLGKFTAAGSVVTSSGAARLDGCYGCTDGSITSTAISTVDFTGLRLSFDRVTSGLDSGEAGIAEFSTNGSTYTAVESIRTASGRVTFNLPTSAENQSGLRLRFRINASLSSETYTVDNIRLEGTSGSGGGTTNPFEKGPDPTKTMLEASTGPFTYTTTTVSSTTASGYRQGTIYHCTNVTGPFAAVAVVPGYLASQSSINWWGPRLASHGFVVITIDTNSTSDQPPSRATQLMAALNQLKTFSNTSSHPIYRKVDPNRLGVMGWSMGGGGTLIAARDNPTLKAAIPFAPWNSSTNFSTVSVPTLIIACESDSTAPVNSHASPFYNSLPSTTKKAYLEMNNGSHSCANSGNSNAGLIGKYGVSWMKCFMDNDTRFSPYLCGAPHQADLSLTAIDEYRENCPY
B2: unnamed (protein)
chain: B1 chain with C201P, N364C, C391R, D411C
B3: unnamed (protein)
chain: B1 chain with C201P, C391R

Substitutions are numbered along the chain they refer to.

Substrate in the first data set: BHET
Briefly: Proxy for plastic degradation [Released monomer concentration (HPLC/LC-MS) (TPA+MHET)]. Particulars: pH 7; 30 °C.
Regarding B1, the “Proxy for plastic degradation” value worked out at 19.1 µM.
With B2, the “Proxy for plastic degradation” value was determined as 28.8 µM.

Still in this data set, the particulars now being: pH 7; 40 °C.
With B1, the “Proxy for plastic degradation” value stood at 19.5 µM.
The same measure, in the same setting: as for B2, the figure is 31.2 µM.

Staying with this data set, now noted: pH 7; 50 °C.
Regarding B1, the “Proxy for plastic degradation” value is 20.2 µM.
With B2, the “Proxy for plastic degradation” value came out at 37.6 µM.

Staying with this data set, now noted: pH 9; 30 °C.
On to B1, for which the “Proxy for plastic degradation” value turned out to be 19.6 µM.
The same measure, in the same setting: next, B2: 28.9 µM.

Staying with this data set, now noted: pH 9; 40 °C.
As for B1, the “Proxy for plastic degradation” value stood at 37.1 µM.
B2: the “Proxy for plastic degradation” value came out at 43.2 µM.

The data set is the same for the next values; noted with them: pH 9; 50 °C.
B1: the “Proxy for plastic degradation” value is 55 µM.
The same measure, in the same setting: next, B2: 66.1 µM.

Substrate in another data set: PET
The data set is described as follows: Proxy for plastic degradation [Released monomer concentration (HPLC/LC-MS) (MHET+TPA)]. Particulars: pH 9; 30 °C; 1 h.
B1: the “Proxy for plastic degradation” value is 2.3 µM.
Same read-out and setting: as for B2, the figure is 12.1 µM.

The same data set, now with this note: pH 9; 30 °C; 2 h.
Take B1: the “Proxy for plastic degradation” value was found to be 3.8 µM.
Still for that read-out and setting: as for B2, the figure is 22.4 µM.

The data set is the same for the next values; noted with them: pH 9; 30 °C; 3 h.
B1: the “Proxy for plastic degradation” value worked out at 1.6 µM.
Still for that read-out and setting: next, B2: 33.3 µM.

Staying with this data set, now noted: pH 9; 30 °C; 4 h.
Take B1: the “Proxy for plastic degradation” value came to 5.4 µM.
As for B2, the “Proxy for plastic degradation” value was 44.1 µM.

The data set is the same for the next values; noted with them: pH 9; 30 °C; 5 h.
Consider B1, for which the “Proxy for plastic degradation” value stood at 4.6 µM.
The same measure, in the same setting: next, B2: 64.8 µM.

Still in this data set, the particulars now being: pH 9; 30 °C; 6 h.
With B1, the “Proxy for plastic degradation” value came to 4.9 µM.
Regarding B2, the “Proxy for plastic degradation” value amounted to 72.1 µM.

Staying with this data set, now noted: pH 9; 40 °C; 1 h.
Regarding B1, the “Proxy for plastic degradation” value stood at 0.84 µM.
Same read-out and setting: next, B2: 24.3 µM.

The data set is the same for the next values; noted with them: pH 9; 40 °C; 2 h.
On to B1, for which the “Proxy for plastic degradation” value stood at 3 µM.
Consider B2, for which the “Proxy for plastic degradation” value is 43.4 µM.

The data set is the same for the next values; noted with them: pH 9; 40 °C; 3 h.
Turning to B1, the “Proxy for plastic degradation” value was 4.3 µM.
With B2, the “Proxy for plastic degradation” value came out at 59.5 µM.

The same data set, now with this note: pH 9; 40 °C; 4 h.
For B1, the “Proxy for plastic degradation” value turned out to be 8.2 µM.
Still for that read-out and setting: next, B2: 58 µM.

The same data set, now with this note: pH 9; 40 °C; 5 h.
Consider B1, for which the “Proxy for plastic degradation” value amounted to 8 µM.
Same read-out and setting: next, B2: 101 µM.

Still in this data set, the particulars now being: pH 9; 40 °C; 6 h.
For B1, the “Proxy for plastic degradation” value is 9.8 µM.
The same measure, in the same setting: as for B2, the figure is 104 µM.

Substrate in a further data set: PET
The data set is described as follows: Proxy for plastic degradation [Released monomer concentration (HPLC/LC-MS) (Not Mentioned)]. Particulars: pH 9; 1 h.
For B1, the “Proxy for plastic degradation” value turned out to be 2.3 µM.
Same read-out and setting: as for B3, the figure is 6 µM.

The same data set, now with this note: pH 9; 2 h.
Consider B1, for which the “Proxy for plastic degradation” value worked out at 3.8 µM.
On the same count and under the same terms, as for B3, the figure is 8.6 µM.

The same data set, now with this note: pH 9; 3 h.
In the case of B1, the “Proxy for plastic degradation” value was found to be 1.6 µM.
Turning to B3, the “Proxy for plastic degradation” value was determined as 12.8 µM.

Staying with this data set, now noted: pH 9; 4 h.
In the case of B1, the “Proxy for plastic degradation” value was 5.4 µM.
On the same count and under the same terms, as for B3, the figure is 11.8 µM.

The data set is the same for the next values; noted with them: pH 9; 5 h.
In the case of B1, the “Proxy for plastic degradation” value is 4.6 µM.
Take B3: the “Proxy for plastic degradation” value was found to be 14.5 µM.

The data set is the same for the next values; noted with them: pH 9; 6 h.
Consider B1, for which the “Proxy for plastic degradation” value turned out to be 4.9 µM.
Same read-out and setting: as for B3, the figure is 15 µM.
